Measured values from article PMC11626796, “Versican binds collagen via its G3 domain and regulates the organization and mechanics of collagenous matrices” (The Journal of Biological Chemistry, 2024).

B1: Recombinant human versican isoform V3 (natural protein)
chain: not shown
notes: Versican isoform V3, human; contains only the N-terminal G1 and C-terminal G3 domains and lacks the GAG domains; also called V3 isoform; source: bought: R&D Systems
B2: Recombinant human versican G3 domain (domain or fragment)
chain: not shown
B3: Recombinant human versican G1 domain (domain or fragment)
chain: not shown
modifications: Limits taken by convention: mature N-terminus through Ig-like V, Link 1 and Link 2 (Abcam ab152303 limits not given); tag omitted

target: T1, Rat tail type I telo-collagen (rat, UniProt P02454 152-1207; P02466 86-1125); test: ELISA; solid-phase binding assay: proteoglycan or versican domain coated on a 96-well plate (0.25 ug/ml; 0.05-1 ug/ml in Fig. 2A) at 4 C overnight, blocked with 3% BSA in TTBS or casein; rat tail type I collagen 0.1-5 ug/ml in 1% BSA/PBS overnight at RT; detected with biotin-conjugated anti-collagen I antibody, streptavidin-HRP and TMB; Kd from Scatchard plot; conditions: both partners purified
T1 construct: Type I collagen alpha-1 chain, rat tail telo-collagen; Type I collagen alpha-2 chain, rat tail telo-collagen; Extracted from tissue; Telopeptides are kept (telo-collagen); also called type I collagen; full-length collagen; source: bought: Corning (rat tail)
T1 sequence (P02454 152-1207, chain 1 of 2): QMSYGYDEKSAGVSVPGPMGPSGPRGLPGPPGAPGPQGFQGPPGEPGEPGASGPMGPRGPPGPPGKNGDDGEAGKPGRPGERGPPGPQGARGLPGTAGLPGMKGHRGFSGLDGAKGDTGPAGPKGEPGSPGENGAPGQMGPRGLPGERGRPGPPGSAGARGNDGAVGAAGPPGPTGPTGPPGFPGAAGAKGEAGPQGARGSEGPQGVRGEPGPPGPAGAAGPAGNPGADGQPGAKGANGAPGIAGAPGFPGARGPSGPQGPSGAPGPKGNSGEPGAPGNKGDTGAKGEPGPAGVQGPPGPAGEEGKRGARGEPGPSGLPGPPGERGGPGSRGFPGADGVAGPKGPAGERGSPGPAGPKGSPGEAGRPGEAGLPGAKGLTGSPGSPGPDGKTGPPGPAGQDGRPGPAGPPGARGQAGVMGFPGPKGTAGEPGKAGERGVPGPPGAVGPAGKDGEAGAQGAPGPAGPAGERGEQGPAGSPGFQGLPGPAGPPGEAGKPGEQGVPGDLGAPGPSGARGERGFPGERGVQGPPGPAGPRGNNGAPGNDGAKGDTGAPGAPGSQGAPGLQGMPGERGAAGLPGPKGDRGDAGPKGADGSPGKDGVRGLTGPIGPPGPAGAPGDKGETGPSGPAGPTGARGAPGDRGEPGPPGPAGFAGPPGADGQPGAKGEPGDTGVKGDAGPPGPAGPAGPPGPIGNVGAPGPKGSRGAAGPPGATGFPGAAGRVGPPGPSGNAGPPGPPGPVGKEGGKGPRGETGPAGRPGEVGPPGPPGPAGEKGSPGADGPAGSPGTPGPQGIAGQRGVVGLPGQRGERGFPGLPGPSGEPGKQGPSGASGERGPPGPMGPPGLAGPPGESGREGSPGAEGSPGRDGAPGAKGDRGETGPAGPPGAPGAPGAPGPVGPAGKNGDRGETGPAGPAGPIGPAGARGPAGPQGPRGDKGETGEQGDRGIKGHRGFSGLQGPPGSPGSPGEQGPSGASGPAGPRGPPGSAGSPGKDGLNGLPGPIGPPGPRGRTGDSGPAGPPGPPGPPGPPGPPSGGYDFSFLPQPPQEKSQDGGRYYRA
T1 sequence (P02466 86-1125, chain 2 of 2): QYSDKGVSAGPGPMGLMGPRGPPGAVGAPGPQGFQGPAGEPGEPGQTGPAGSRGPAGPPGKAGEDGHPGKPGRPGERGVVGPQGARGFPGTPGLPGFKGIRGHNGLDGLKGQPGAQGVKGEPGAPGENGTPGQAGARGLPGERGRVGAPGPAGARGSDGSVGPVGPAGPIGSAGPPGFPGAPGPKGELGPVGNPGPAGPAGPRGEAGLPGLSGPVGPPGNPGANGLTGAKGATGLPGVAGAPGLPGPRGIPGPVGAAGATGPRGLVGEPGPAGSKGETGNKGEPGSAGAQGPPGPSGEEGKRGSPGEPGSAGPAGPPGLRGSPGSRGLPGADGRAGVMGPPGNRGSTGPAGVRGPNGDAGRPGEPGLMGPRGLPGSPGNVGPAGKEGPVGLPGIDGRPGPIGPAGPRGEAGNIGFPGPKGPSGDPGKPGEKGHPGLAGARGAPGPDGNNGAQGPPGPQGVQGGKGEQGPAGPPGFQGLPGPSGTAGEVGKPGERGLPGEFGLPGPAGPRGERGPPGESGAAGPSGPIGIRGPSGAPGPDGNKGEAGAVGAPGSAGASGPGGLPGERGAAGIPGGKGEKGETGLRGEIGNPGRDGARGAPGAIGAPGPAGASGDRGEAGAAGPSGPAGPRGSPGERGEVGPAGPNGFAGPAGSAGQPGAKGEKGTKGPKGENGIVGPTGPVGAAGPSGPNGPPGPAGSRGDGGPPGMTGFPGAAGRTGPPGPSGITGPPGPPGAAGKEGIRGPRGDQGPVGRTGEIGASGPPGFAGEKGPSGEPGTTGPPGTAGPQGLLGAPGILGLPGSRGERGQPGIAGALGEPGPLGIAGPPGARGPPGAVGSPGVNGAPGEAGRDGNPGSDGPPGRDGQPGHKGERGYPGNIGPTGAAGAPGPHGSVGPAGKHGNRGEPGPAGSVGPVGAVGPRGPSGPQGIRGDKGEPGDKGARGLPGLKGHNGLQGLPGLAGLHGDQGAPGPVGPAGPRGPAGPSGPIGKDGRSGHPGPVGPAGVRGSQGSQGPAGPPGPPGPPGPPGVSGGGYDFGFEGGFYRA

First: B1
Second: B2
The Kd of the first is 4.6-fold lower: 0.7 nM for the first, 3.2 nM for the second.

With B3 the Kd was 0.9 nM.
